Tests used:
p38 = p38 kinase activity in HEK293 cells transfected with MEKK 2 or 3; assay type: cell-based; details: immunoprecipitation and in vitro kinase assay
Procedure: The p38 kinase is activated by hyperosmotic conditions and recognizes the transcription factor ATF 2 as an in vitro substrate. Sorbitol treated (0.4M, 20 min) or control HEK293 cells were lysed in the same buffer as that used for immunoprecipitation of p38 using rabbit antiserum raised against the COOH terminal peptide sequence of p38. Immunoprecipitates were washed once in lysis buffer, once in assay buffer (25 mM Hepes, pH 7.4, 25 mM β-glycerophosphate, 25 mM […], 2 mM dithiothreitol, 0.1 mM sodium vanadate) resuspended, and used in an in vitro kinase assay with a recombinant NH2-terminal fragment of ATF 2 (20-50 ng). For analysis of p38 kinase activity from Mono Q FPLC fractions, 20 ul aliquots were mixed with kinase buffer containing 20-50 ng of recombinant ATF 2 and 10 uCi of [γ32P]PATP. Reactions were quenched in Laemmli sample buffer, boiled, and proteins were resolved using SDS 10% PAGE. […] Mono Q FPLC fractionation of lysates from MEKK 2 or 3 transfected HEK293 cells confirmed that p38 kinase activity was similar to that from control transfected cells. ATF 2 is also a substrate for JNK. Fractions 2-8 from cells transfected with MEKK 2 or 3, that contain immunoreactive JNK, have increased kinase activity toward ATF 2. This is a predicted result based on the ability of both MEKK 2 and 3 to stimulate JNK activity in HEK293 cells. […]

c-Jun kinase = c-Jun kinase activation in transfected COS cells; assay type: cell-based; details: expression in COS cells, FIG. 22
From the text: COS cells were transfected with pCMV5 expression plasmid encoding no cDNA insert (control), full length MEKK4 or the truncated MEKK4 encoding only the catalytic kinase domain.

p38 MAPK = test: Tyrosine phosphorylation of p38 MAPK in COS cells transfected with MEKK 1 or MEKK 3; assay type: cell-based; details: forty-eight hours after transfection
Procedure: (§1) COS cells were transfected with the expression plasmid pCVM5 ligated to cDNA clones encoding either MEKK 1 or MEKK 3 protein, or a control pCVM5 plasmid lacking MEKK cDNA inserts. Forty-eight hours after transfection, the COS cells were lysed and the lysate fractionated on a Mono Q FPLC column using conditions described in Example 4. The fractions were analyzed for tyrosine phosphorylation of MAP kinase-like enzymes using the kinase assay described in Example 4.

[1] = system: p42 and p44 forms of MAPK; test: Phosphorylation of p42 and p44 MAPK in COS cells transfected with MEKK 1 or MEKK 3; assay type: cell-based; details: forty-eight hours after transfection
Procedure: as §1

MEK 1 = biological target: T1, MEK 1 (Mus musculus, UniProt P31938); test: In vitro kinase assay of immunoprecipitated HA-tagged MEKK with recombinant MEK1; assay type: biochemical; details: 12CA5 immunoprecipitates
T1 construct: polyhistidine (N); made in house; host or cells: pRSETA vector
Procedure: (§2) MEKK 2 Phosphorylates Both MEK 1 and JNK Kinase in Vitro. HEK293 cells expressing MEKK 2 and 3 were lysed in !% Triton x-100, 0.5% Nonidet P-40, 20 mM Tris HCL, pH 7.5, 150 mM NaCl, 20 mM NaF, 0.2 mM sodium vanadate, 1 mM EDTA, […], 1 mM EGTA, 5 mM PMSF. Nuclei were removed by centrifugation at 15,000×g for 5 min. HA epitope-tagged MEKK2 and 3 were immunoprecipitated with the 12CA5 antibody recognizing the HA epitope-tag. The immunoprecipitates were washed twice in lysis buffer, twice in PAN (10 mM Pipes, pH 7.0, 100 mM NaCl, 20 ug/ml aprotinin), suspended in 20 mM Pipes, 10 mM MnCl2, 20 ug/ml aprotinin, and used in an in vitro kinase assay with 20-50 ng of recombinant MEK1 or JNKK as substrates and 20 uCi of [γ^32P]ATP. Reactions were terminated by the addition of Laemmli sample buffer, boiled, and proteins were resolved by SDS-10% PAGE.

p42/44 MAPK = p42/44 MAPK activity in HEK293 cells transfected with MEKK 2 or 3; assay type: cell-based; details: transient expression in HEK293 cells
Procedure: MAPK activity following Mono Q FPLC fractionation was measured using the epidermal growth factor receptor […] peptide as a selective p42/44 MAPK substrate. Alternatively, for cells transfected with varying amounts of MEKK plasmids, MAPK activity was assayed after elution from DEAE Sephacel columns. […] Thus, even though the kinase domains are approximately 94% conserved, MEKK 2 and 3 differ in their selectivity for regulation of the JNK and p42/44^MAPK pathways. This was particularly evident for MEKK 3 at low plasmid concentrations where the p42/44^MAPK pathway was preferentially activated.

c-Jun kinase (JNK) = test: JNK activity in HEK293 cells transfected with MEKK 2 or 3; assay type: cell-based; details: for selectivity in activating JNK versus p42/44 MAPK: plasmid DNAs titrated over a range of concentrations; for c-Jun kinase (JNK) activity: transient expression in HEK293 cells
Procedure: JNK activity was measured using GSTc-Jun1-79) coupled to glutathione Sepharose 4B. Cells transfected with MEKK2 or 3 and control transfected cells were lysed in 0.5% Nonidet P-40, 20 mM Tris HCl, pH 7.6, 0.25 M NaCl, 3 mM EDTA, 3 mM EGTA, 1 mM dithiothreitol, 1 mM PMSFm 2 mM sodium vanadate, 20 ug/ml aprotinin, and 5 ug/ml leupeptin. Nuclei were removed by centrifugation at 15,000×g for 10 min and the supernatants (25 ug of protein) were mixed with 10 ul of a slurry of GST c-Jun(1-79) Sepharos (3-5 ug of GST cJun(1-79). The mixture was rotated at 4° C. for 1 h, washed twice in lysis buffer and once in kinase buffer (20 mM Hepes, pH 7.5, 10 mM MgCl2, 20 mM β-glycerophosphate, 10 mM p-nitrophenyl phosphate, 1 mM dithiothreitol, 50 uM sodium vanadate). Beads were suspended in 40 ul of kinase assay buffer containing 10 uCi of [γ32P]ATP and incubated at 30° C. for 20 min. Reaction mixtures were added to Laemmli sample buffer, boiled, and phosphorylated proteins were resolved on SDS-10% polyacrylamide gels. The JNK activity also eluted early from a Mono Q column using a linear sodium chloride elution gradient. […] When JNK activity was assayed following fractionation by Mono Q ion exchange chromatography, 50 ul of each fraction was incubated with the GST cJun(1-79) beads.

JNKK = biological target: T2, JNKK (Homo sapiens, UniProt P45985); test: In vitro kinase assay of immunoprecipitated HA-tagged MEKK with recombinant JNKK; assay type: biochemical; details: 12CA5 immunoprecipitates
T2 sequence (P45985 1-399): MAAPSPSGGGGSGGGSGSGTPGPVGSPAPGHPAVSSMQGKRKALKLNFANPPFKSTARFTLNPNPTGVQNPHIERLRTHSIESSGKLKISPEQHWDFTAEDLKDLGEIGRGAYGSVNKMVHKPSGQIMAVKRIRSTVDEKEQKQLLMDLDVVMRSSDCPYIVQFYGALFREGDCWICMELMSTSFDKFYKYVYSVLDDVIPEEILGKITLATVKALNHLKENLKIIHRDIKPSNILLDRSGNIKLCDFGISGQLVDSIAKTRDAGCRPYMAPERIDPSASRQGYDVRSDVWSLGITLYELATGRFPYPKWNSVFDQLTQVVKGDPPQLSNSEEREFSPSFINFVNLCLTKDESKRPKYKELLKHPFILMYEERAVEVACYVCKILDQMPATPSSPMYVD
Procedure: as §2
Incubations were for 30 min at 30° C. in the presence of 50 uM ATP. GST-cJun (1-79) Sepharose beads were then added, and the mixture was rotated at 4° C. for 30 min. The beads were washed, suspended in 40 ul of c-Jun kinase assay buffer containing 20 uCi of [γ32P]ATP, and incubated for 15 min at 30° C. Reaction mixtures were added to Laemmli sample buffer, boiled, and phosphorylated proteins were resolved on SDS 10% PAGE.

B1: MEKK 3: 626-amino acid MEK kinase protein, SEQ ID No. 10 (protein, listed as Mus musculus)
chain: MDEQEALDSIMKDLVALQMSRRTRLSGYETMKNKDTGHPNRQSDVRIKFEHNGERRIIAFSRPVRYEDVEHKVTTVFGQPLDLHYMNNELSILLKNQDDLDKAIDILDRSSSMKSLRILLLSQDRNHTSSSPHSGVSRQVRIKPSQSAGDINTIYQAPEPRSRHLSVSSQNPGRSSPPPGYVPERQQHIARQGSYTSINSEGEFIPETSEQCMLDPLSSAENSLSGSCQSLDRSADSPSFRKSQMSRARSFPDNRKECSDRETQLYDKGVKGGTYPRRYHVSVHHKDYNDGRRTFPRIRRHQGNLFTLVPSSRSLSTNGENMGVAVQYLDPRGRLRSADSENALTVQERNVPTKSPSAPINWRRGKLLGQGAFGRVYLCYDVDTGRELASKQVQFDPDSPETSKEVSALECEIQLLKNLQHERIVQYYGCLRDRAEKILTIFMEYMPGGSVKDQLKAYGALTESVTRKYTRQILEGMSYLHSNMIVHRDIKGANILRDSAGNVKLGDFGASKRLQTICMSGTGIRSVTGTPYWMSPEVISGEGYGRKADVWSLGCTVVEMLTEKPPWAEYEAMAAIFKIATQPTNPQLPSHISEHGRDFLRRIFVEARQRPSAEELLTHHFAQLVY
Question: B1 was tested. Which p38 kinase activity (p38) did it give?
Answer: neither MEKK 2 nor MEKK 3 stimulated p38 kinase activity

Question: And the “activation of the c-Jun kinase pathway” value (c-Jun kinase)?
Answer: also activate the c-Jun kinase pathway

Question: And the “phosphorylation of p38 MAPK” value (p38 MAPK)?
Answer: induces tyrosine phosphorylation of p38 MAPK

Question: What about the “phosphorylation of p42 and p44 MAPK” value [1] of the same molecule?
Answer: induces tyrosine phosphorylation

Question: What about the “phosphorylation of MEK 1 in vitro” value (MEK 1) of the same molecule?
Answer: did not show measurable kinase activity toward MEK 1 or JNKK

Question: What about the “p42/44 MAPK activity” value (p42/44 MAPK) of the same molecule?
Answer: stimulated p42/44^MAPK activity

Question: And the “selectivity in activating JNK versus p42/44 MAPK” value (c-Jun kinase (JNK))?
Answer: greater selectivity for activating p42/44 MAPK relative to JNK

Question: And the “c-Jun kinase (JNK) activity” value (c-Jun kinase (JNK))?
Answer: stimulation of c-Jun kinase (JNK) activity

Question: What about the “phosphorylation of JNKK in vitro” value (JNKK) of the same molecule?
Answer: did not show measurable kinase activity toward MEK 1 or JNKK

B2: MEKK 2: 619-amino acid MEK kinase protein, SEQ ID No. 6 / 8 (protein)
chain: MGYPYDVPDYASDDQQALNSIMQDLAVLHKPVGQHYLYKKPGKQNLHHQKNRMMFESNLNIEEEKRILQVTRPVKLEDLRSKSKIAFGQSMDLHYTNNELVIPLTTQDDLDKAVELLDRSIHMKSLKILLVVNGSTQATNLEPSPSPEDLNNTPLGAERKKRLSVVGPPNRDRSSPPPGYIPDILHQIARNGSFTSINSEGEFIPESMDQMLDPLSLSSPENSGSGSCPSLDSPLDGESYPKSRMPRAQSYPDNHQEFTDYDNPIFEKFGKGGTYPRRYHVSYHHQEYNDGRKTFPRARRTQGTSFRSPVSFSPTDHSLSTSSGSSVFTPEYDDSRIRRRGSDIDNPTLTVTDISPPSRSPRAPTNWRLGKLLGQGAFGRVYLCYDVDTGRELAVKQVQFNPESPETSKEVNALECEIQLLKNLLHERIVQYYGCLRDPQEKTLSIFMELSPGGSIKDQLKAYGALTENVTRKYTRQILEGVHYLHSNMIVHRDIKGANILRDSTGNIKLGDFGASKRLQTICLSGTGMKSVTGTPYWMSPEVISGEGYGRKADIWSVACTVVEMLTEKPPWAEFEAMAAIFKIATQPTNPKLPPHVSDYTRDFLKRIFVEAKLRPSAEELLRHMFVHYH
Question: What does the source list for B2?
Answer: p38 kinase activity (p38): neither MEKK 2 nor MEKK 3 stimulated p38 kinase activity; activation of the c-Jun kinase pathway (c-Jun kinase): also activate the c-Jun kinase pathway; phosphorylation of MEK 1 in vitro (MEK 1): clearly phosphorylates both MEK 1 and JNKK; p42/44 MAPK activity (p42/44 MAPK): stimulated p42/44^MAPK activity; selectivity in activating JNK versus p42/44 MAPK (c-Jun kinase (JNK)): greater selectivity for stimulation of the JNK pathway; c-Jun kinase (JNK) activity (c-Jun kinase (JNK)): stimulation of c-Jun kinase (JNK) activity; phosphorylation of JNKK in vitro (JNKK): clearly phosphorylates both MEK 1 and JNKK

From patent US20080201790A1, “Method and product for regulating cell responsiveness to external signals” (priority 1993, published 2008)
